Drawing on patent publication US7407766, this text covers Kd for one substance.

The assay addresses full-length mouse Plexin-A1 protein (aa1 to 1894) (mouse) (UniProt P70206). Put plainly: AP activity bound to Plexin-A1 expressing L cells, non-specific binding to parent L cells subtracted; Scatchard plot.

full-length mouse Plexin-A1 protein (aa1 to 1894) (mouse), sequence (P70206 28-1894 limits assumed): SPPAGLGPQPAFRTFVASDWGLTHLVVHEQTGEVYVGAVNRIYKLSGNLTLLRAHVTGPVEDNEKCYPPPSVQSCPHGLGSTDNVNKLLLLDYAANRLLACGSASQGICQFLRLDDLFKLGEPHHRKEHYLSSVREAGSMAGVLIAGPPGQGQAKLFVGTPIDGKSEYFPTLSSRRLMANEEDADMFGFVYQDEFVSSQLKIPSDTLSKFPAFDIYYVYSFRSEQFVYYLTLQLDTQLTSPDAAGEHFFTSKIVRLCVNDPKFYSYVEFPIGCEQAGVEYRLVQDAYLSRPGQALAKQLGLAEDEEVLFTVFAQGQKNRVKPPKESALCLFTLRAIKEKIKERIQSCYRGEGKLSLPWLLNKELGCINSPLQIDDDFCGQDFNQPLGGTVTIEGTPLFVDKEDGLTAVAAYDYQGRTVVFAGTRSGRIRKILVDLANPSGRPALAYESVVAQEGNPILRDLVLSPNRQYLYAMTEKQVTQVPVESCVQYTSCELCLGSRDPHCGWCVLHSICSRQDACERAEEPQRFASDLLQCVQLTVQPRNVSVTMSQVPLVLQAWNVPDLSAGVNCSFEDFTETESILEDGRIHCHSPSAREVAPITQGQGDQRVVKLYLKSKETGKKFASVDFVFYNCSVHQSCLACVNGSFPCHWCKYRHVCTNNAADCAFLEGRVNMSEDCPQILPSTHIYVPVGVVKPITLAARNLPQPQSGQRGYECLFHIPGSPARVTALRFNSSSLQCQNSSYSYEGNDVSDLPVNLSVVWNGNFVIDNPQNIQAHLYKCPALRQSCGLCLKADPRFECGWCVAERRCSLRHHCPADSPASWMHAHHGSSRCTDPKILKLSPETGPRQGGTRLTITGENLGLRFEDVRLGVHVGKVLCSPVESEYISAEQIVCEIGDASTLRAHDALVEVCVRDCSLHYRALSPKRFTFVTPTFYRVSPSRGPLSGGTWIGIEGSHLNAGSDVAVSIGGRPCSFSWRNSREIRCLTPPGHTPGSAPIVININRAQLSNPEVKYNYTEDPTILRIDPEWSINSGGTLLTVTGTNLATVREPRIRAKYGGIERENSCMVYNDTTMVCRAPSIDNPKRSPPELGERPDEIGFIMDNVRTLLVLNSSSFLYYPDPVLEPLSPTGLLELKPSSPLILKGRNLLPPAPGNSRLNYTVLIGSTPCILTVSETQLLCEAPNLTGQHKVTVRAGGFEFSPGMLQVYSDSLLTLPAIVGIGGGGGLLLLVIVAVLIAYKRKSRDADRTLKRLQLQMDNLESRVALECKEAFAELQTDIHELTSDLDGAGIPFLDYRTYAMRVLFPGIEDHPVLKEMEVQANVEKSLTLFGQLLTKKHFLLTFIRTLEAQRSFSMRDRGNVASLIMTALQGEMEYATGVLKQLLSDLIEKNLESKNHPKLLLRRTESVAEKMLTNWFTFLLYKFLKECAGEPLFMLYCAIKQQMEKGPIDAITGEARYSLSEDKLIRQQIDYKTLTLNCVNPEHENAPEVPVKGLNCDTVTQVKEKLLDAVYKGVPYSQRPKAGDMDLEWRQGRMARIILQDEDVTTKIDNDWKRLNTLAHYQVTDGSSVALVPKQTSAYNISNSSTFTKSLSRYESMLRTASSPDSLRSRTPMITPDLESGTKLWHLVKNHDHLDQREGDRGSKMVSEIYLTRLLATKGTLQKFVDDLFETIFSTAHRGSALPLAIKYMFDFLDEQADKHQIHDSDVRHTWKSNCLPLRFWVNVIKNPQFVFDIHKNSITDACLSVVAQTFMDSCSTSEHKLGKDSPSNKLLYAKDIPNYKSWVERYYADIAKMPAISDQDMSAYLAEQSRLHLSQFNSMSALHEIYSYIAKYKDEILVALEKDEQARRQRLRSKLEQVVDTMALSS

Regarding “Sema6C-alkaline phosphatase fusion protein (Sema6C-S-AP) (from UniProt Q9WTL3 24-599; P05187 23-511) (ligand)”, the Kd was 16.5 nM.
